Source: patent publication US20090197797A1, “USE OF HYALURONIC ACID AS A CARRIER MOLECULE FOR DIFFERENT CLASSES OF THERAPEUTIC ACTIVE AGENTS” (priority 2006, published 2009)

Assay: storage stability of HA-6-MTX checked by repeated NMR spectrum
Assay type: physicochemical
Settings: 3-months storage at room temperature; compared with freshly prepared product
Procedure: A solution of HA-OMs:TBA salt from Example 10 (500 mg; 0.73 mmol) in DMSO (15 ml) was treated with a solution of methotrexate (833 mg; 1.83 mmol) in DMSO (10 ml) in the presence of solid cesium carbonate (596 mg; 1.83 mmol). The mixture was stirred under nitrogen at 80° C. for 18 h, whereupon it darkened with formation of solids. It was then cooled to ambient temperature, poured into 100 ml of water (pH 6.5), treated with 15 ml of saturated NaCl solution, and stirred for 1.5 h. Then solids were filtered off and the solution was ultrafiltered, concentrated and freeze-dried to give 131 mg of a yellow-brownish solid. […] HPLC analysis gave 32% w/w, corresponding to 40% mol/mol.

6-O-Methotrexylhyaluronic Acid [Example 24]
NMR spectrum repeated on the same sample after storage (stability of substitution degree): the substitution degree is maintained and no by-products are formed
